Data published in patent US20230011916A1 (BEIGENE, published 2023).
One block for each binder: values may come before it.

Experiments:
[1] = target: T1, full-length human OX40 expressed on HuT78 cells (HuT78/OX40) (human, UniProt P43489 29-277); assay: FACS; cells not named on the sheet, HuT78/OX40 cells as in Example 5
T1 sequence: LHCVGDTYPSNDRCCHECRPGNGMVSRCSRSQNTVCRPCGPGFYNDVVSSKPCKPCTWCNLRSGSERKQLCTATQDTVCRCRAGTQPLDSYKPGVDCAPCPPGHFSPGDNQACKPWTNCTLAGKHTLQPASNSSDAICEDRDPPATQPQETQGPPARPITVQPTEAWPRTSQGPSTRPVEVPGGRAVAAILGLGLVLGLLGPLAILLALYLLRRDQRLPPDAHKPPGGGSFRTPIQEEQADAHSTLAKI

[2] = target: T2, recombinant OX40 protein with a His tag (Cat: 10481-H08H, Sino Biological) (UniProt P43489 29-216); assay: Biacore (SPR); antigen not named on the sheet, OX40-His as in Example 4
T2 construct: Bought protein; also called OX40-His (bought); not shown: His tag
T2 sequence (looked up): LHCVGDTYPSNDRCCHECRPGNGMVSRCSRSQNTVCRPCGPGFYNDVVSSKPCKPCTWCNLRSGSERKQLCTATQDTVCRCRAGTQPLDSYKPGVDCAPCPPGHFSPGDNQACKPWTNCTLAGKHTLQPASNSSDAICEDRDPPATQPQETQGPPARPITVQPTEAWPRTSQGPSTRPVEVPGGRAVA

[3] = target: T2, recombinant OX40 protein with a His tag …; assay: SPR, BIAcore T-200; antibody captured by anti-human IgG, OX40-His flowed; Mean
Excerpt: (§1) The anti-OX40 antibodies were characterized for their binding kinetics and affinity by SPR assays using BIAcore™ T-200 (GE Life Sciences). Briefly, anti-human IgG antibody was immobilized on an activated CM5 biosensorchip (Cat: BR100530, GE Life Sciences). An antibody with human IgG Fc region was flowed over the chip surface and captured by anti-human IgG antibody. Then a serial dilution of recombinant OX40 protein with a His tag (Cat: 10481-H08H, Sino Biological) was flowed over the chip surface and changes in surface plasmon resonance signals were analyzed to calculate the association rates (ka) and dissociation rates (kd) by using the one-to-one Langmuir binding model (BIA Evaluation Software, GE Life Sciences). The equilibrium dissociation constant (KD) was calculated as the ratio kd/ka.

[4] = target: T1, full-length human OX40 expressed on …; assay: flow cytometry on live HuT78/OX40 cells; Mean
Procedure: (§2) To evaluate the binding activity of anti-OX40 antibodies to bind OX40 expressed on the surface of live cells, HuT78 cells were transfected with human OX40 as described in Example 1 to create an OX40 expressing line. Live HuT78/OX40 cells were seeded in 96-well plate and were incubated with a serial dilution of various anti-OX40 antibodies. Goat anti-Human IgG-FITC (Cat: A0556, Beyotime) was used as a secondary antibody to detect antibody binding to the cell surface. EC₅₀ values for dose-dependent binding to human OX40 were determined by fitting the dose-response data to the four-parameter logistic model with GraphPad Prism.

[5] = target: T1, full-length human OX40 expressed on …; assay: flow cytometry on live HuT78/OX40 cells; Test 1
Procedure: as §2

[6] = target: T2, recombinant OX40 protein with a His tag …; assay: SPR, BIAcore T-200; antibody captured by anti-human IgG, OX40-His flowed; Test 1
Excerpt: as §1

[7] = target: T2, recombinant OX40 protein with a His tag …; assay: Biacore (SPR); antigen not named on the sheet, OX40-His as in Example 4; remark: listed apart in the source
[8] = target: T1, full-length human OX40 expressed on …; assay: FACS; cells not named on the sheet, HuT78/OX40 cells as in Example 5; remark: listed apart in the source
[9] = target: T1, full-length human OX40 expressed on …; assay: flow cytometry on live HuT78/OX40 cells; Test 2
Procedure: as §2

[10] = target: T2, recombinant OX40 protein with a His tag …; assay: SPR, BIAcore T-200; antibody captured by anti-human IgG, OX40-His flowed; Test 2
Excerpt: as §1

B1: 445-1-2(S10T/E81D/D70E) (antibody, human IgG1, V domains shown)
VH: QVQLVQSGAEVKKPGSSVKVSCKASGYKFTSYIIHWVRQAPGQGLEWMGYINPYNDGTRYNQKFQGRVTLTSDKSTSTAYMELSSLRSEDTAVYYCARGYYGSSYAMDYWGQGTTVTVSS
VL: DIQMTQSPSTLSASVGDRVTITCSASQGISNYLNWYQQKPGKAIKLLIYDTSTLYSGVPSRFSGSGSGTEYTLTISSLQPDDFATYYCQQYSKLPYTFGGGTKVEIK
- EC50 [1]: 0.28 µg/mL
- Top(MFI) [1]: 510 MFI
- Kd [2]: 14.9 nM
- koff [2]: 0.0034 s⁻¹
- kon [2]: 228000 M⁻¹ s⁻¹

B4: 445-3 IgG4 (antibody, V domains shown)
VH: QVQLVQSGAEVKKPGSSVKVSCKASGYKFTSYIIHWVRQAPGQGLEWMGYINPYNEGTRYNQKFQGRVTLTADKSTSTAYMELSSLRSEDTAVYYCARGYYGSSYAMDYWGQGTTVTVSS
VL: DIQMTQSPSSLSASVGDRVTITCRASQGISNYLNWYQQKPDGAIKLLIYDASTLYSGVPSRFSGSGSGTDFTLTISSLQPEDFATYYCQQYSKLPYTFGGGTKVEIK
- Ka [3]: 1e+08 M⁻¹
- Kd [3]: 10 nM
- EC50 [4]: 0.263 µg/mL
- Top(MFI) [4]: 892 MFI
- EC50 [5]: 0.263 µg/mL
- Ka [6]: 1e+08 M⁻¹
- Kd [6]: 10 nM

B5: 445-3(A61N-K28R)-3 (antibody, V domains shown)
VH: QVQLVQSGAEVKKPGSSVKVSCKASGYRFTSYIIHWVRQAPGQGLEWMGYINPYNEGTRYNQKFQGRVTLTADKSTSTAYMELSSLRSEDTAVYYCARGYYGSSYAMDYWGQGTTVTVSS
VL: DIQMTQSPSSLSASVGDRVTITCRASQGISNYLNWYQQKPDGAIKLLIYDASTLYSGVPSRFSGSGSGTDFTLTISSLQPEDFATYYCQQYSKLPYTFGGGTKVEIK
- Kd [7]: 7.35 nM
- koff [7]: 0.00115 s⁻¹
- kon [7]: 157000 M⁻¹ s⁻¹
- EC50 [8]: 0.369 µg/mL
- Top(MFI) [8]: 1080 MFI

B6: 445-3(A61N-K63R)-3 (antibody, V domains shown)
VH: QVQLVQSGAEVKKPGSSVKVSCKASGYKFTSYIIHWVRQAPGQGLEWMGYINPYNEGTRYNQRFQGRVTLTADKSTSTAYMELSSLRSEDTAVYYCARGYYGSSYAMDYWGQGTTVTVSS
VL: DIQMTQSPSSLSASVGDRVTITCRASQGISNYLNWYQQKPDGAIKLLIYDASTLYSGVPSRFSGSGSGTDFTLTISSLQPEDFATYYCQQYSKLPYTFGGGTKVEIK
- Kd [7]: 9.65 nM
- koff [7]: 0.00155 s⁻¹
- kon [7]: 161000 M⁻¹ s⁻¹
- EC50 [8]: 0.483 µg/mL
- Top(MFI) [8]: 1100 MFI

B8: 445-3(Q62E/Q65K)-3(S24R) (antibody, V domains shown)
VH: QVQLVQSGAEVKKPGSSVKVSCKASGYKFTSYIIHWVRQAPGQGLEWMGYINPYNEGTRYAEKFKGRVTLTADKSTSTAYMELSSLRSEDTAVYYCARGYYGSSYAMDYWGQGTTVTVSS
VL: DIQMTQSPSSLSASVGDRVTITCRASQGISNYLNWYQQKPGKAIKLLIYDASTLYSGVPSRFSGSGSGTDFTLTISSLQPEDFATYYCQQYSKLPYTFGGGTKVEIK
- Kd [7]: 12.4 nM
- koff [7]: 0.00232 s⁻¹
- kon [7]: 187000 M⁻¹ s⁻¹
- EC50 [8]: 0.318 µg/mL
- Top(MFI) [8]: 790 MFI

Second part, the binder after the results:

- EC50 [1]: 0.307 µg/mL
- Top(MFI) [1]: 470 MFI
- Kd [2]: 16.2 nM
- koff [2]: 0.0036 s⁻¹
- kon [2]: 222000 M⁻¹ s⁻¹
B2: 445-1-2(S24G) (antibody, human IgG1, V domains shown)
VH: QVQLVQSGAEVKKPGSSVKVSCKASGYKFTSYIIHWVRQAPGQGLEWMGYINPYNDGTRYNQKFQGRVTLTSDKSTSTAYMELSSLRSEDTAVYYCARGYYGSSYAMDYWGQGTTVTVSS
VL: DIQMTQSPSSLSASVGDRVTITCGASQGISNYLNWYQQKPGKAIKLLIYDTSTLYSGVPSRFSGSGSGTDYTLTISSLQPEDFATYYCQQYSKLPYTFGGGTKVEIK

- EC50 [1]: 0.353 µg/mL
- Top(MFI) [1]: 480 MFI
- Kd [2]: 15.5 nM
- koff [2]: 0.00356 s⁻¹
- kon [2]: 230000 M⁻¹ s⁻¹
B3: 445-2(M48I)-1 (antibody, human IgG1, V domains shown)
VH: QVQLVQSGAEVKKPGSSVKVSCKASGYKFTSYIIHWVRQAPGQGLEWIGYINPYNDGTRYNQKFQGRVTLTSDKSTSTAYMELSSLRSEDTAVYYCARGYYGSSYAMDYWGQGTTVTVSS
VL: DIQMTQSPSSLSASVGDRVTITCSASQGISNYLNWYQQKPGKAIKLLIYDTSTLYSGVPSRFSGSGSGTDYTLTISSLQPEDFATYYCQQYSKLPYTFGGGTKVEIK

- Kd [7]: 11.7 nM
- koff [7]: 0.00227 s⁻¹
- kon [7]: 194000 M⁻¹ s⁻¹
- EC50 [8]: 0.363 µg/mL
- Top(MFI) [8]: 760 MFI
B7: 445-3(Q62E)-3(S24R) (antibody, V domains shown)
VH: QVQLVQSGAEVKKPGSSVKVSCKASGYKFTSYIIHWVRQAPGQGLEWMGYINPYNEGTRYAEKFQGRVTLTADKSTSTAYMELSSLRSEDTAVYYCARGYYGSSYAMDYWGQGTTVTVSS
VL: DIQMTQSPSSLSASVGDRVTITCRASQGISNYLNWYQQKPGKAIKLLIYDASTLYSGVPSRFSGSGSGTDFTLTISSLQPEDFATYYCQQYSKLPYTFGGGTKVEIK

- Kd [7]: 13.1 nM
- koff [7]: 0.00381 s⁻¹
- kon [7]: 291000 M⁻¹ s⁻¹
- EC50 [8]: 0.405 µg/mL
- Top(MFI) [8]: 800 MFI
B9: 445-3(T30S)-3(S24R) (antibody, V domains shown)
VH: QVQLVQSGAEVKKPGSSVKVSCKASGYKFSSYIIHWVRQAPGQGLEWMGYINPYNEGTRYAQKFQGRVTLTADKSTSTAYMELSSLRSEDTAVYYCARGYYGSSYAMDYWGQGTTVTVSS
VL: DIQMTQSPSSLSASVGDRVTITCRASQGISNYLNWYQQKPGKAIKLLIYDASTLYSGVPSRFSGSGSGTDFTLTISSLQPEDFATYYCQQYSKLPYTFGGGTKVEIK

- Kd [7]: 7.9 nM
- koff [7]: 0.00168 s⁻¹
- kon [7]: 212000 M⁻¹ s⁻¹
- EC50 [8]: 0.337 µg/mL
- Top(MFI) [8]: 1050 MFI
B10: 445-3-3(G41D-K42G-S24R-K93R) (antibody, V domains shown)
VH: QVQLVQSGAEVKKPGSSVKVSCKASGYKFTSYIIHWVRQAPGQGLEWMGYINPYNEGTRYNQKFQGRVTLTADKSTSTAYMELSSLRSEDTAVYYCARGYYGSSYAMDYWGQGTTVTVSS
VL: DIQMTQSPSSLSASVGDRVTITCRASQGISNYLNWYQQKPDGAIKLLIYDASTLYSGVPSRFSGSGSGTDFTLTISSLQPEDFATYYCQQYSRLPYTFGGGTKVEIK

- EC50 [9]: 0.277 µg/mL
- Ka [3]: 1.41e+08 M⁻¹
- Kd [3]: 7.28 nM
- EC50 [4]: 0.299 µg/mL
- Top(MFI) [4]: 725 MFI
- Ka [10]: 1.59e+08 M⁻¹
- Kd [10]: 6.3 nM
- koff [10]: 0.00167 s⁻¹
- kon [10]: 265000 M⁻¹ s⁻¹
- EC50 [5]: 0.321 µg/mL
- Ka [6]: 1.22e+08 M⁻¹
- Kd [6]: 8.26 nM
- koff [6]: 0.00143 s⁻¹
- kon [6]: 174000 M⁻¹ s⁻¹
B11: ch445 (antibody, V domains shown)
VH: EVQLQQSGPELVKPGASVKMSCKASGYKFTSYIIHWVKQKPGQGLEWIGYINPYNDGTRYNEKFKGKATLTSDKSSSTAYMEYSSLTSEDSAVYYCARGYYGSSYAMDYWGQGTSVTVSS
VL: DIQMTQTTSSLSASLGDRVTISCSASQGISNYLNWYQQKPDGTIKLLIYDTSTLYSGVPSRFSGSGSGTDYFLTISNLEPEDIATYYCQQYSKLPYTFGGGTKLEKK
notes: also called Mu445 variable domains fused to human IgG1wt/kappa constant regions
